Results published in IntAct's records for PubMed 10466729.

B1: Phytochrome B (Arabidopsis thaliana (Mouse-ear cress)), P14713 (parent)
chain: MVSGVGGSGGGRGGGRGGEEEPSSSHTPNNRRGGEQAQSSGTKSLRPRSNTESMSKAIQQYTVDARLHAVFEQSGESGKSFDYSQSLKTTTYGSSVPEQQITAYLSRIQRGGYIQPFGCMIAVDESSFRIIGYSENAREMLGIMPQSVPTLEKPEILAMGTDVRSLFTSSSSILLERAFVAREITLLNPVWIHSKNTGKPFYAILHRIDVGVVIDLEPARTEDPALSIAGAVQSQKLAVRAISQLQALPGGDIKLLCDTVVESVRDLTGYDRVMVYKFHEDEHGEVVAESKRDDLEPYIGLHYPATDIPQASRFLFKQNRVRMIVDCNATPVLVVQDDRLTQSMCLVGSTLRAPHGCHSQYMANMGSIASLAMAVIINGNEDDGSNVASGRSSMRLWGLVVCHHTSSRCIPFPLRYACEFLMQAFGLQLNMELQLALQMSEKRVLRTQTLLCDMLLRDSPAGIVTQSPSIMDLVKCDGAAFLYHGKYYPLGVAPSEVQIKDVVEWLLANHADSTGLSTDSLGDAGYPGAAALGDAVCGMAVAYITKRDFLFWFRSHTAKEIKWGGAKHHPEDKDDGQRMHPRSSFQAFLEVVKSRSQPWETAEMDAIHSLQLILRDSFKESEAAMNSKVVDGVVQPCRDMAGEQGIDELGAVAREMVRLIETATVPIFAVDAGGCINGWNAKIAELTGLSVEEAMGKSLVSDLIYKENEATVNKLLSRALRGDEEKNVEVKLKTFSPELQGKAVFVVVNACSSKDYLNNIVGVCFVGQDVTSQKIVMDKFINIQGDYKAIVHSPNPLIPPIFAADENTCCLEWNMAMEKLTGWSRSEVIGKMIVGEVFGSCCMLKGPDALTKFMIVLHNAIGGQDTDKFPFPFFDRNGKFVQALLTANKRVSLEGKVIGAFCFLQIPSPELQQALAVQRRQDTECFTKAKELAYICQVIKNPLSGMRFANSLLEATDLNEDQKQLLETSVSCEKQISRIVGDMDLESIEDGSFVLKREEFFLGSVINAIVSQAMFLLRDRGLQLIRDIPEEIKSIEVFGDQIRIQQLLAEFLLSIIRYAPSQEWVEIHLSQLSKQMADGFAAIRTEFRMACPGEGLPPELVRDMFHSSRWTSPEGLGLSVCRKILKLMNGEVQYIRESERSYFLIILELPVPRKRPLSTASGSGDMMLMMPY
partner: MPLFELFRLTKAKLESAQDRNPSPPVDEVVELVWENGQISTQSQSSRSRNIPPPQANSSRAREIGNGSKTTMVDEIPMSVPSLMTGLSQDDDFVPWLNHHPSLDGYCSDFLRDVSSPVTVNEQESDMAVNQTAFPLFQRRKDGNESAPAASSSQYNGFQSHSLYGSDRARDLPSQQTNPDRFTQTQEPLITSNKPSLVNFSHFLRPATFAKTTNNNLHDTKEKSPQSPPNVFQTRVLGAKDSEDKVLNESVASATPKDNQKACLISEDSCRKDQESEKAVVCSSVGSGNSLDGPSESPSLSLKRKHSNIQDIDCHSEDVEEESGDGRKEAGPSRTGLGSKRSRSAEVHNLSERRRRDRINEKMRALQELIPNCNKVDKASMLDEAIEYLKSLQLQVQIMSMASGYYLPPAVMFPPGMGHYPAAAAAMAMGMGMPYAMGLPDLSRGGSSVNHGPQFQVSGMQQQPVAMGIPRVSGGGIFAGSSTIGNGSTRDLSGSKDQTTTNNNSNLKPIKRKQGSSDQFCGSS

Variants of: B1
Details: with pif3_arath PIF3, O80536

effect of a mutation on the interaction	Variant
decreasing interaction	E812K
decreasing interaction	A750V
decreasing interaction	G767R
